Test results reported in US5643731A, “Use of pairs of leucine zipper peptides in immunoassay methods” (Behringwerke Aktiengesellschaft, priority 1990, dated 1997).

What was measured:
[1] = molecular target: T1, Jun-anti-AFP antibody binding to the Fos-coated microtiter plate (FBJ murine osteosarcoma virus, UniProt P01102); test: Inhibition of the Jun-anti-AFP antibody binding to the Fos-coated microtiter plate by addition of free peptide
T1 construct: host or cells: synthetic peptides; conjugate made in house
Description: 100 μl portions of a Jun peptide-anti-AFP antibody conjugate (anti-AFP antibodies from sheep) prepared as in Example 2, Step 3 or 3a are pipetted into the wells of microtiter plates which were coated with Fos peptide as in Example 2, Step 1, and incubated at 37° C. for 2h. After the wells had been washed three times with washing buffer (OSEW, Behringwerke), 20 μl portions of standard or sample and 100 μl of a buffer (OSND, Behringwerke) with the addition of peroxidase-conjugated anti-AFP antibodies from sheep were introduced. The two-hour incubation at 37° C. is again stopped with a washing step (see above), and the substrate/chromogen reaction is carried out as in Example 2, Step 4.
The Jun/Fos AFP assay described hereinbefore was preceded by an incubation step with 100 μl in each case of a Jun or Fos peptide-containing buffer solution (buffer=OSND) per well at 37° C. for one hour. After 3 washes, the subsequent assay procedure was as specified above.

[2] = molecular target: c-Jun "leucine zipper peptide" (SEQ ID No1) (Homo sapiens, UniProt P05412); details: cited from earlier work

Sequence | Measured signal (extinction 450 nm) Standard S0 (0 IU AFP/ml) ([1]; free peptide 5 μg/ml) | Measured signal (extinction 450 nm) Standard S5 (300 IU AFP/ml) ([1]; free peptide 5 μg/ml) | Measured signal (extinction 450 nm) Standard S0 (0 IU AFP/ml) ([1]; free peptide 50 μg/ml) | Measured signal (extinction 450 nm) Standard S5 (300 IU AFP/ml) ([1]; free peptide 50 μg/ml) | Measured signal (extinction 450 nm) Standard S0 (0 IU AFP/ml) ([1]; free peptide 500 μg/ml) | Measured signal (extinction 450 nm) Standard S5 (300 IU AFP/ml) ([1]; free peptide 500 μg/ml) | heterodimeric complexes with the c-Jun "leucine zipper peptide" [2] | inhibition of the binding of Jun-anti-AFP antibody to the Fos-coated solid phase ([1]; addition of free peptide)
LTDTLQAETDQLEDKKSALQTEIANLLKEKEKLEFILAAY [Fos, synthetic peptide comprising positions 162 to 201, the leucine zipper of the v-Fos protein] | 0.010 | 3.416 | 0.011 | 3.572 | 0.015 | 3.694 | forms very stable heterodimeric complexes | 
RIARLEEKVKTLKAQNSELASTANMLREQVAQLKQKVMNY [Jun, synthetic peptide comprising amino-acid positions 285 to 324, the so-called leucine zipper of the c-Jun protein] | 0.015 | 3.486 | 0.011 | 2.857 | 0.013 | 1.371 |  | possible to inhibit the binding
